From patent US20230212244A1 (IMMATICS BIOTECHNOLOGIES, published 2023)
Square brackets hold non-standard residues; d marks the D form. Ends that are not written are not given here. pS = N[C@@H](COP(=O)(O)O)C(=O)O

The binders below were run against T1, HLA-A*02:01 (human) (assay: UV-ligand exchange ELISA (anti-β2m), peptide exchange yield grade).
T1 construct: MHC class I monomer made peptide-receptive by UV cleavage of a UV-sensitive ligand; also called peptide-receptive MHC molecules
Source text: Candidate peptides for T cell based therapies according to the present invention were further tested for their MHC binding capacity (affinity). The individual peptide-MHC complexes were produced by UV-ligand exchange, where a UV-sensitive peptide is cleaved upon UV-irradiation, and exchanged with the peptide of interest as analyzed. Only peptide candidates that can effectively bind and stabilize the peptide-receptive MHC molecules prevent dissociation of the MHC complexes. To determine the yield of the exchange reaction, an ELISA was performed based on the detection of the light chain (β2m) of stabilized MHC complexes. The assay was performed as generally described in Rodenko et al. (Rodenko et al., 2006).
96 well MAXISorp plates (NUNC) were coated over night with 2ug/ml streptavidin in PBS at room temperature, washed 4× and blocked for1h at 37° C. in 2% BSA containing blocking buffer. Refolded HLA-A*02:01/MLA-001 monomers served as standards, covering the range of 15-500 ng/ml. Peptide-MHC monomers of the UV-exchange reaction were diluted 100 fold in blocking buffer. Samples were incubated for 1h at 37° C., washed four times, incubated with 2 ug/ml HRP conjugated anti-β2m for 1h at 37° C., washed again and detected with TMB solution that is stopped with […]. Absorption was measured at 450 nm. Candidate peptides that show a high exchange yield (preferably higher than 50%, most preferred higher than 75 %) are generally preferred for a generation and production of antibodies or fragments thereof, and/or T cell receptors or fragments thereof, as they show sufficient avidity to the MHC molecules and prevent dissociation of the MHC complexes.
ALAAARVEL [peptide ALAAARVEL (SEQ ID NO: 17)] showed a peptide exchange yield of 50 to 75%.
YLFREPATI [peptide YLFREPATI (SEQ ID NO: 178)] showed a peptide exchange yield of 20 to 50%.
TLMAEMHVV [peptide TLMAEMHW (SEQ ID NO: 50)] gave a peptide exchange yield of 50 to 75%.
Binder ILLEKSVSV [peptide ILLEKSVSV (SEQ ID NO: 34)] has a peptide exchange yield of 50 to 75%.
With FLVDGPRVQL [peptide FLVDGPRVQL (SEQ ID NO: 188)] the peptide exchange yield was 50 to 75%.
FLDASDPAL [peptide FLDASDPAL (SEQ ID NO: 48)] gave a peptide exchange yield of 20 to 50%.
With SLNKWIFTV [peptide SLNKWIFTV (SEQ ID NO: 182)] the peptide exchange yield was at least 75%.
In the case of AISEVIGKITA [peptide AISEVIGKITA (SEQ ID NO: 189)], the peptide exchange yield is reported as 50 to 75%.
With WLFDDGGLTL [peptide WLFDDGGLTL (SEQ ID NO: 5)] the peptide exchange yield was at least 75%.
ALSNVIHKV [peptide ALSNVIHKV (SEQ ID NO: 40)] was tested, and the peptide exchange yield was 20 to 50%.
In the case of VLVDQSWVL [peptide VLVDQSWVL (SEQ ID NO: 16)], the peptide exchange yield is reported as 50 to 75%.
ALLQGAIESV [peptide ALLQGAIESV (SEQ ID NO: 177)] gave a peptide exchange yield of 50 to 75%.
With FLSSLKGGLL [peptide FLSSLKGGLL (SEQ ID NO: 18)] the peptide exchange yield was 50 to 75%.
For FLDANGHFV [peptide FLDANGHFV (SEQ ID NO: 23)], the peptide exchange yield was 50 to 75%.
With YLAHFIEGL [peptide YLAHFIEGL (SEQ ID NO: 169)] the peptide exchange yield was 50 to 75%.
GLASKENFSNVSL [peptide GLASKENFSNVSL (SEQ ID NO: 26)] gave a peptide exchange yield of 20 to 50%.
Work on ALAELLHGA [peptide ALAELLHGA (SEQ ID NO: 45)] yielded a peptide exchange yield of 50 to 75%.
In the case of QLFSEIHNL [peptide QLFSEIHNL (SEQ ID NO: 191)], the peptide exchange yield is reported as at least 75%.
Work on QVWEIQHTV [peptide QVWEIQHTV (SEQ ID NO: 51)] yielded a peptide exchange yield of 20 to 50%.
Work on TLDAAQPRV [peptide TLDAAQPRV (SEQ ID NO: 43)] yielded a peptide exchange yield of 20 to 50%.
RLQETEGMVAV [peptide RLQETEGMVAV (SEQ ID NO: 171)] gave a peptide exchange yield of 20 to 50%.
Work on VLIDHRWVL [peptide VLIDHRWVL (SEQ ID NO: 21)] yielded a peptide exchange yield of 50 to 75%.
Work on GLHNVVYGI (also called GLHNWYGI) [peptide GLHNVVYGI (SEQ ID NO: 187)] yielded a peptide exchange yield of 50 to 75%.
KLYERCEVV (also called KLYERCEVV) [peptide KLYERCEW (SEQ ID NO: 47)] was tested, and the peptide exchange yield was 20 to 50%.
For GLLEARGILGL [peptide GLLEARGILGL (SEQ ID NO: 166)], the peptide exchange yield was 50 to 75%.
Work on GLIDEVMVL (also called CYP2W1-001) [peptide GLIDEVMVL (SEQ ID NO: 22)] yielded a peptide exchange yield of 50 to 75%.
Binder AMAEMVLQV [peptide AMAEMVLQV (SEQ ID NO: 190)] has a peptide exchange yield of 50 to 75%.
For SLAPTPVSA [peptide SLAPTPVSA (SEQ ID NO: 38)], the peptide exchange yield was 20 to 50%.
LLADEDSSYL [peptide LLADEDSSYL (SEQ ID NO: 27)] was tested, and the peptide exchange yield was 20 to 50%.
Binder SLLDENNVSSYL [peptide SLLDENNVSSYL (SEQ ID NO: 184)] has a peptide exchange yield of 50 to 75%.
For ILLDDNMQIRL [peptide ILLDDNMQIRL (SEQ ID NO: 174)], the peptide exchange yield was at least 75%.
For RLAELTVDEFL [peptide RLAELTVDEFL (SEQ ID NO: 4)], the peptide exchange yield was 50 to 75%.
With GLIRFPLMTI [peptide GLIRFPLMTI (SEQ ID NO: 168)] the peptide exchange yield was 50 to 75%.
VLDGVLMEL [peptide VLDGVLMEL (SEQ ID NO: 24)] gave a peptide exchange yield of 50 to 75%.
With FLLGSEIKL [peptide FLLGSEIKL (SEQ ID NO: 53)] the peptide exchange yield was 50 to 75%.
With LLYGKYVSV [peptide LLYGKYVSV (SEQ ID NO: 31)] the peptide exchange yield was 50 to 75%.
Binder RTLDKVLEV [peptide RTLDKVLEV (SEQ ID NO: 176)] has a peptide exchange yield of 20 to 50%.
SLADRLIGV [peptide SLADRLIGV (SEQ ID NO: 25)] gave a peptide exchange yield of at least 75%.
KLGDLMVLL [peptide KLGDLMVLL (SEQ ID NO: 173)] was tested, and the peptide exchange yield was 50 to 75%.
SVIDHIHLISV [peptide SVIDHIHLISV (SEQ ID NO: 167)] was tested, and the peptide exchange yield was 50 to 75%.
For GLDDRYSLV [peptide GLDDRYSLV (SEQ ID NO: 46)], the peptide exchange yield was 50 to 75%.
Binder RLIPDTLYSV [peptide RLIPDTLYSV (SEQ ID NO: 3)] has a peptide exchange yield of at least 75%.
For GLLESPSIFNFTA [peptide GLLESPSIFNFTA (SEQ ID NO: 36)], the peptide exchange yield was 50 to 75%.
For RLL[pS]PLSSA (Phosphopeptide) [peptide RLLJPLSSA (SEQ ID NO: 179)], the peptide exchange yield was 50 to 75%.
Binder LLLDTVTMQV [peptide LLLDTVTMQV (SEQ ID NO: 172)] has a peptide exchange yield of 50 to 75%.
For KMSEKILLL [peptide KMSEKILLL (SEQ ID NO: 186)], the peptide exchange yield was 50 to 75%.
SILDDSFKL [peptide SILDDSFKL (SEQ ID NO: 42)] showed a peptide exchange yield of at least 75%.
TLLGGKEAQALGV [peptide TLLGGKEAQALGV (SEQ ID NO: 175)] was tested, and the peptide exchange yield was 50 to 75%.
Work on NLFDLGGQYLRV [peptide NLFDLGGQYLRV (SEQ ID NO: 181)] yielded a peptide exchange yield of 50 to 75%.
Work on ALLNGEYLLAA [peptide ALLNGEYLLAA (SEQ ID NO: 54)] yielded a peptide exchange yield of 50 to 75%.
Binder TLQEVVTGV (also called TLQEWTGV) [peptide TLQEVVTGV (SEQ ID NO: 183)] has a peptide exchange yield of 50 to 75%.
RLYTKLLNEA [peptide RLYTKLLNEA (SEQ ID NO: 19)] showed a peptide exchange yield of 50 to 75%.
ALAGGITMV [peptide ALAGGITMV (SEQ ID NO: 170)] gave a peptide exchange yield of 50 to 75%.
KLLDLTVRI [peptide KLLDLTVRI (SEQ ID NO: 35)] gave a peptide exchange yield of 50 to 75%.
ALLPRYFFL [peptide ALLPRYFFL (SEQ ID NO: 2)] gave a peptide exchange yield of 20 to 50%.
YLKDGDVML [peptide YLKDGDVML (SEQ ID NO: 20)] gave a peptide exchange yield of 50 to 75%.
KLNTETFGV [peptide KLNTETFGV (SEQ ID NO: 32)] showed a peptide exchange yield of 20 to 50%.
RLLDFPEAMVL [peptide RLLDFPEAMVL (SEQ ID NO: 165)] gave a peptide exchange yield of at least 75%.
For GLSSAYGGL [peptide GLSSAYGGL (SEQ ID NO: 30)], the peptide exchange yield was 10 to 20%.
For ALWEKNTHL [peptide ALWEKNTHL (SEQ ID NO: 33)], the peptide exchange yield was 50 to 75%.
QMLDVAIRV [peptide QMLDVAIRV (SEQ ID NO: 29)] was tested, and the peptide exchange yield was 50 to 75%.
ALTEIQEFI [peptide ALTEIQEFI (SEQ ID NO: 28)] showed a peptide exchange yield of at least 75%.
ALDSSNSMQTI [peptide ALDSSNSMQTI (SEQ ID NO: 52)] gave a peptide exchange yield of 20 to 50%.
In the case of ILDDSFKLL [peptide ILDDSFKLL (SEQ ID NO: 41)], the peptide exchange yield is reported as 20 to 50%.
SLESKLTSV [peptide SLESKLTSV (SEQ ID NO: 44)] showed a peptide exchange yield of 50 to 75%.
VLYTGVVRV [peptide VLYTGWRV (SEQ ID NO: 185)] gave a peptide exchange yield of 50 to 75%.
For GLFAGLGGAGA [peptide GLFAGLGGAGA (SEQ ID NO: 37)], the peptide exchange yield was 50 to 75%.
